For experiment [1], the target named is T1, human TACI, full length, on transfected 293EBNA cells (CA336) (human, UniProt O14836 1-293).
T1 construct: whole, on cells; also called huTACI
T1 sequence (looked up): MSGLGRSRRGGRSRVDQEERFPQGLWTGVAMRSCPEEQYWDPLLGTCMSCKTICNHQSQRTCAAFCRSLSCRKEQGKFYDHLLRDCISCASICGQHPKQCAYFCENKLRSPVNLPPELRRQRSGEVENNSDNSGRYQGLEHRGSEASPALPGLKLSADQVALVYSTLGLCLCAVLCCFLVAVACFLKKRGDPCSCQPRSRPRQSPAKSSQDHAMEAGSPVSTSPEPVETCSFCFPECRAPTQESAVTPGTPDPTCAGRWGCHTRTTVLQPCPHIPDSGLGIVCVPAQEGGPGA
Briefly: FACS on 293EBNA cells co-transfected with human TACI and GFP, 1 ug/ml myc-APRIL. An excerpt:
(§1) At 18-20 hr post-transfection, cells were detached, counted, and stained for FACS analysis similar to Example 5 with the following modifications. […] The cells were again washed, fixed with paraformaldehyde, and analyzed by FACS for GFP and PE positive cells.

Experiment [2] deals with T2, human BAFF-R (JST576), full length, on cells (human, UniProt Q96RJ3 1-184).
T2 construct: also called pJST576 transfected cells; huBAFF-R
T2 sequence: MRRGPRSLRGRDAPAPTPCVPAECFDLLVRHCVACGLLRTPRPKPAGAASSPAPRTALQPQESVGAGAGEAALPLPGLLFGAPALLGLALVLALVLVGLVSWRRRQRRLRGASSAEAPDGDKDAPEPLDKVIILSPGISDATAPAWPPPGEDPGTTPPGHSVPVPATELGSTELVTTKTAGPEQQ
Briefly: FACS on 293EBNA cells co-transfected with pJST576 and GFP reporter; anti-murine APRIL mAb, biotinylated anti-rat IgG2b, SAV-PE.
Excerpt: as §1

1 molecule from patent US20040072188A1 (Biogen, published 2004) can be followed below.

B1: murine recombinant soluble myc-APRIL (ligand, UniProt Q9D777 96-241, looked up)
chain: AVLTQKHKKKHSVLHLVPVNITSKADSDVTEVMWQPVLRRGRGLEAQGDIVRVWDTGIYLLYSQVLFHDVTFTMGQVVSREGQGRRETLFRCIRSMPSDPDRAYNSCYSAGVFHLHQGDIITVKIPRANAKLSLSPHGTFLGFVKL
notes: also called myc-muAPRIL; murine myc-APRIL; not shown: myc tag
As for B1, the binding result is listed as “binds” in experiment [1] and “no binding (tested: 1 ug/ml)” in experiment [2].
